The source of these data is doi:10.1101/2024.09.20.614183, “Rubisco packaging and stoichiometric composition of a native β-carboxysome” (bioRxiv, 2024).

For the assay, the target named is T1, Rubisco L8S8 hexadecamer (Form IB ribulose 1,5-bisphosphate carboxylase/oxygenase) of Synechococcus elongatus … (Synechococcus elongatus PCC7942 …, UniProt Q31NB3 1-472; Q31NB2 1-111).
T1 construct: RbcL, Rubisco large subunit, Synechococcus elongatus PCC7942; printed MW 52.4 kDa; RbcS, Rubisco small subunit, Synechococcus elongatus PCC7942; printed MW 13.3 kDa; Native holoenzyme imaged inside isolated β-carboxysomes; never isolated on its own; also called Rubisco complex; Rubisco holoenzyme; source: endogenous, inside β-carboxysomes purified from Syn7942 (sucrose gradient …)
The experiment in a line: cryo-EM structure; cryo-electron tomography and subtomogram averaging (emClarity) of Rubisco inside intact β-carboxysomes isolated from Syn7942 grown under low light; 185 carboxysomes; D4 symmetry applied; 3.5 Å. Conditions: partners not purified.

T1 sequence (Q31NB2 whole entry, chain 2 of 2, other chains not shown): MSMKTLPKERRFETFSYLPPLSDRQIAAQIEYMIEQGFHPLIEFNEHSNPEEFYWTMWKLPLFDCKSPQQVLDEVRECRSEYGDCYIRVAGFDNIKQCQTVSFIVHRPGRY

B1: CcmM, Rubisco-scaffolding linker protein of the Syn7942 β-carboxysome (natural protein, UniProt Q03513-2 1-324, looked up)
chain: MSAYNGQGRLSSEVITQVRSLLNQGYRIGTEHADKRRFRTSSWQPCAPIQSTNERQVLSELENCLSEHEGEYVRLLGIDTNTRSRVFEALIQRPDGSVPESLGSQPVAVASGGGRQSSYASVSGNLSAEVVNKVRNLLAQGYRIGTEHADKRRFRTSSWQSCAPIQSSNERQVLAELENCLSEHEGEYVRLLGIDTASRSRVFEALIQDPQGPVGSAKAAAAPVSSATPSSHSYTSNGSSSSDVAGQVRGLLAQGYRISAEVADKRRFQTSSWQSLPALSGQSEATVLPALESILQEHKGKYVRLIGIDPAARRRVAELLIQKP
notes: CcmM, Synechococcus elongatus PCC7942; Mixture of CcmM58 and CcmM35 in the native carboxysome; only an SSUL module is resolved; also called CcmM SSUL; CcmM58; source: endogenous, inside β-carboxysomes purified from Syn7942 (sucrose gradient ultracentrifugation)
On to B1, for which the “stoichiometry N” value is 4 SSUL domains per Rubisco.
